B1: Brefeldin A-inhibited guanine nucleotide-exchange protein 2 (Homo sapiens), Q9Y6D5 (parent)
chain: MQESQTKSMFVSRALEKILADKEVKRPQHSQLRRACQVALDEIKAEIEKQRLGTAAPPKANFIEADKYFLPFELACQSKSPRVVSTSLDCLQKLIAYGHITGNAPDSGAPGKRLIDRIVETICSCFQGPQTDEGVQLQIIKALLTAVTSPHIEIHEGTILQTVRTCYNIYLASKNLINQTTAKATLTQMLNVIFTRMENQVLQEARELEKPIQSKPQSPVIQAAAVSPKFVRLKHSQAQSKPTTPEKTDLTNGEHARSDSGKVSTENGDAPRERGSSLSGTDDGAQEVVKDILEDVVTSAIKEAAEKHGLTEPERVLGELECQECAIPPGVDENSQTNGIADDRQSLSSADNLESDAQGHQVAARFSHVLQKDAFLVFRSLCKLSMKPLGEGPPDPKSHELRSKVVSLQLLLSVLQNAGPVFRTHEMFINAIKQYLCVALSKNGVSSVPDVFELSLAIFLTLLSNFKMHLKMQIEVFFKEIFLNILETSTSSFEHRWMVIQTLTRICADAQCVVDIYVNYDCDLNAANIFERLVNDLSKIAQGRSGHELGMTPLQELSLRKKGLECLVSILKCMVEWSKDLYVNPNHQTSLGQERLTDQEIGDGKGLDMARRCSVTSMESTVSSGTQTTVQDDPEQFEVIKQQKEIIEHGIELFNKKPKRGIQFLQEQGMLGTSVEDIAQFLHQEERLDSTQVGDFLGDSARFNKEVMYAYVDQLDFCEKEFVSALRTFLEGFRLPGEAQKIDRLMEKFAARYIECNQGQTLFASADTAYVLAYSIIMLTTDLHSPQVKNKMTKEQYIKMNRGINDSKDLPEEYLSSIYEEIEGKKIAMKETKELTIATKSTKQNVASEKQRRLLYNLEMEQMAKTAKALMEAVSHAKAPFTSATHLDHVRPMFKLVWTPLLAAYSIGLQNCDDTEVASLCLEGIRCAIRIACIFGMQLERDAYVQALARFSLLTASSSITEMKQKNIDTIKTLITVAHTDGNYLGNSWHEILKCISQLELAQLIGTGVKTRYLSGSGREREGSLKGHTLAGEEFMGLGLGNLVSGGVDKRQMASFQESVGETSSQSVVVAVDRIFTGSTRLDGNAIVDFVRWLCAVSMDELASPHHPRMFSLQKIVEISYYNMNRIRLQWSRIWHVIGDHFNKVGCNPNEDVAIFAVDSLRQLSMKFLEKGELANFRFQKDFLRPFEHIMKKNRSPTIRDMAIRCIAQMVNSQAANIRSGWKNIFAVFHQAASDHDGNIVELAFQTTCHIVTTIFQHHFPAAIDSFQDAVKCLSEFACNAAFPDTSMEAIRLIRFCGKYVSERPRVLQEYTSDDMNVAPGDRVWVRGWFPILFELSCIINRCKLDVRTRGLTVMFEIMKSYGHTFEKHWWQDLFRIVFRIFDNMKLPEQLSEKSEWMTTTCNHALYAICDVFTQFYEALNEVLLSDVFAQLQWCVKQDNEQLARSGTNCLENLVISNGEKFSPEVWDETCNCMLDIFKTTIPHVLLTWRPVGMEEDSSEKHLDVDLDRQSLSSIDKNPSERGQSQLSNPTDDSWKGRPYANQKLFASLLIKCVVQLELIQTIDNIVFYPATSKKEDAEHMVAAQQDTLDADIHIETEDQGMYKYMSSQHLFKLLDCLQESHSFSKAFNSNYEQRTVLWRAGFKGKSKPNLLKQETSSLACCLRILFRMYVDENRRDSWEEIQQRLLTVCSEALAYFITVNSESHREAWTSLLLLLLTKTLKINDEKFKAHASMYYPYLCEIMQFDLIPELRAVLRKFFLRIGVVYKIWIPEEPSQVPAALSPVW
partner: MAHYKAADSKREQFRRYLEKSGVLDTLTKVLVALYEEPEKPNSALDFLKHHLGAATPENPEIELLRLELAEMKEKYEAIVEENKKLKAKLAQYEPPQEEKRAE

Results on one variant are retold here after IntAct's records for PubMed 16866877.

Variants of B1 are the subject of this experiment. The conditions noted are these: with mycbp_human MYCBP.
Consider I292P, for which the “effect of a mutation on the interaction” value is on record as “decreasing interaction”.
